What was measured:
[1] = compound: Cc1ncc(/C=C/P(=O)(O)O)c(C=O)c1O; assay: (§1) Inhibition of recombinant mouse brain PDXP-mediated pyridoxal 5' phosphate hydrolysis expressed in Escherichia coli BL21 (DE3) cells assessed as enzyme Km at 0.1 mM preincubated for 4 mins followed by substrate addition measured after 2 mins
[2] = compound: Cc1ncc(/C=C/P(=O)(O)O)c(CO)c1O; assay: as §1
[3] = compound: Cc1ncc(CCP(=O)(O)O)c(C=O)c1O; assay: as §1
[4] = compound: Cc1ncc(CCP(=O)(O)O)c(CO)c1O; assay: as §1
[5] = compound: Cc1ncc(/C=C/P(=O)(O)O)c(C=O)c1O; assay: (§2) Inhibition of recombinant mouse brain PDXP-mediated pyridoxal 5' phosphate hydrolysis expressed in Escherichia coli BL21 (DE3) cells assessed as enzyme Vmax at 0.1 mM preincubated for 4 mins followed by substrate addition measured after 2 mins
[6] = compound: Cc1ncc(/C=C/P(=O)(O)O)c(CO)c1O; assay: as §2
[7] = compound: Cc1ncc(CCP(=O)(O)O)c(C=O)c1O; assay: as §2
[8] = compound: Cc1ncc(CCP(=O)(O)O)c(CO)c1O; assay: as §2
[9] = compound: Cc1ncc(/C=C/P(=O)(O)O)c(C=O)c1O; assay: (§3) Inhibition of recombinant mouse brain PDXP-mediated pyridoxal 5' phosphate hydrolysis expressed in Escherichia coli BL21 (DE3) cells assessed as enzyme Kcat at 0.1 mM preincubated for 4 mins followed by substrate addition measured after 2 mins
[10] = compound: Cc1ncc(/C=C/P(=O)(O)O)c(CO)c1O; assay: as §3
[11] = compound: Cc1ncc(CCP(=O)(O)O)c(C=O)c1O; assay: as §3
[12] = compound: Cc1ncc(CCP(=O)(O)O)c(CO)c1O; assay: as §3
[13] = compound: Cc1ncc(/C=C/P(=O)(O)O)c(C=O)c1O; assay: (§4) Inhibition of recombinant mouse brain PDXP-mediated pyridoxal 5' phosphate hydrolysis expressed in Escherichia coli BL21 (DE3) cells assessed as ratio of enzyme Kcat/Km at 0.1 mM preincubated for 4 mins followed by substrate addition measured after 2 mins
[14] = compound: Cc1ncc(/C=C/P(=O)(O)O)c(CO)c1O; assay: as §4
[15] = compound: Cc1ncc(CCP(=O)(O)O)c(C=O)c1O; assay: as §4
[16] = compound: Cc1ncc(CCP(=O)(O)O)c(CO)c1O; assay: as §4
[17] = compound: Cc1ncc(/C=C/P(=O)(O)O)c(C=O)c1O; assay: (§5) Inhibition of recombinant mouse brain PDXP-mediated pyridoxal 5' phosphate hydrolysis expressed in Escherichia coli BL21 (DE3) cells assessed as enzyme Km at 0.5 mM preincubated for 4 mins followed by substrate addition measured after 2 mins
[18] = compound: Cc1ncc(/C=C/P(=O)(O)O)c(CO)c1O; assay: as §5
[19] = compound: Cc1ncc(CCP(=O)(O)O)c(C=O)c1O; assay: as §5
[20] = compound: Cc1ncc(CCP(=O)(O)O)c(CO)c1O; assay: as §5
[21] = compound: Cc1ncc(/C=C/P(=O)(O)O)c(C=O)c1O; assay: (§6) Inhibition of recombinant mouse brain PDXP-mediated pyridoxal 5' phosphate hydrolysis expressed in Escherichia coli BL21 (DE3) cells assessed as enzyme Vmax at 0.5 mM preincubated for 4 mins followed by substrate addition measured after 2 mins
[22] = compound: Cc1ncc(/C=C/P(=O)(O)O)c(CO)c1O; assay: as §6
[23] = compound: Cc1ncc(CCP(=O)(O)O)c(C=O)c1O; assay: as §6
[24] = compound: Cc1ncc(CCP(=O)(O)O)c(CO)c1O; assay: as §6
[25] = compound: Cc1ncc(/C=C/P(=O)(O)O)c(C=O)c1O; assay: (§7) Inhibition of recombinant mouse brain PDXP-mediated pyridoxal 5' phosphate hydrolysis expressed in Escherichia coli BL21 (DE3) cells assessed as enzyme Kcat at 0.5 mM preincubated for 4 mins followed by substrate addition measured after 2 mins
[26] = compound: Cc1ncc(/C=C/P(=O)(O)O)c(CO)c1O; assay: as §7
[27] = compound: Cc1ncc(CCP(=O)(O)O)c(C=O)c1O; assay: as §7
[28] = compound: Cc1ncc(CCP(=O)(O)O)c(CO)c1O; assay: as §7
[29] = compound: Cc1ncc(/C=C/P(=O)(O)O)c(C=O)c1O; assay: (§8) Inhibition of recombinant mouse brain PDXP-mediated pyridoxal 5' phosphate hydrolysis expressed in Escherichia coli BL21 (DE3) cells assessed as ratio of enzyme Kcat/Km at 0.5 mM preincubated for 4 mins followed by substrate addition measured after 2 mins
[30] = compound: Cc1ncc(/C=C/P(=O)(O)O)c(CO)c1O; assay: as §8
[31] = compound: Cc1ncc(CCP(=O)(O)O)c(C=O)c1O; assay: as §8
[32] = compound: Cc1ncc(CCP(=O)(O)O)c(CO)c1O; assay: as §8
[33] = compound: Cc1ncc(/C=C/P(=O)(O)O)c(C=O)c1O; assay: (§9) Inhibition of recombinant mouse brain PDXP-mediated pyridoxal 5' phosphate hydrolysis expressed in Escherichia coli BL21 (DE3) cells assessed as enzyme Km at 1 mM preincubated for 4 mins followed by substrate addition measured after 2 mins
[34] = compound: Cc1ncc(/C=C/P(=O)(O)O)c(CO)c1O; assay: as §9
[35] = compound: Cc1ncc(CCP(=O)(O)O)c(C=O)c1O; assay: as §9
[36] = compound: Cc1ncc(CCP(=O)(O)O)c(CO)c1O; assay: as §9
[37] = compound: Cc1ncc(/C=C/P(=O)(O)O)c(C=O)c1O; assay: (§10) Inhibition of recombinant mouse brain PDXP-mediated pyridoxal 5' phosphate hydrolysis expressed in Escherichia coli BL21 (DE3) cells assessed as enzyme Vmax at 1 mM preincubated for 4 mins followed by substrate addition measured after 2 mins
[38] = compound: Cc1ncc(/C=C/P(=O)(O)O)c(CO)c1O; assay: as §10
[39] = compound: Cc1ncc(CCP(=O)(O)O)c(C=O)c1O; assay: as §10
[40] = compound: Cc1ncc(CCP(=O)(O)O)c(CO)c1O; assay: as §10
[41] = compound: Cc1ncc(/C=C/P(=O)(O)O)c(C=O)c1O; assay: (§11) Inhibition of recombinant mouse brain PDXP-mediated pyridoxal 5' phosphate hydrolysis expressed in Escherichia coli BL21 (DE3) cells assessed as enzyme Kcat at 1 mM preincubated for 4 mins followed by substrate addition measured after 2 mins
[42] = compound: Cc1ncc(/C=C/P(=O)(O)O)c(CO)c1O; assay: as §11
[43] = compound: Cc1ncc(CCP(=O)(O)O)c(C=O)c1O; assay: as §11
[44] = compound: Cc1ncc(CCP(=O)(O)O)c(CO)c1O; assay: as §11
[45] = compound: Cc1ncc(/C=C/P(=O)(O)O)c(C=O)c1O; assay: (§12) Inhibition of recombinant mouse brain PDXP-mediated pyridoxal 5' phosphate hydrolysis expressed in Escherichia coli BL21 (DE3) cells assessed as ratio of enzyme Kcat/Km at 1 mM preincubated for 4 mins followed by substrate addition measured after 2 mins
[46] = compound: Cc1ncc(/C=C/P(=O)(O)O)c(CO)c1O; assay: as §12
[47] = compound: Cc1ncc(CCP(=O)(O)O)c(C=O)c1O; assay: as §12
[48] = compound: Cc1ncc(CCP(=O)(O)O)c(CO)c1O; assay: as §12
[49] = compound: Cc1ncc(/C=C/P(=O)(O)O)c(C=O)c1O; assay: (§13) Inhibition of recombinant mouse brain PDXP-mediated pyridoxal 5' phosphate hydrolysis expressed in Escherichia coli BL21 (DE3) cells assessed as enzyme Km at 2 mM preincubated for 4 mins followed by substrate addition measured after 2 mins
[50] = compound: Cc1ncc(/C=C/P(=O)(O)O)c(CO)c1O; assay: as §13
[51] = compound: Cc1ncc(CCP(=O)(O)O)c(C=O)c1O; assay: as §13
[52] = compound: Cc1ncc(CCP(=O)(O)O)c(CO)c1O; assay: as §13
[53] = compound: Cc1ncc(/C=C/P(=O)(O)O)c(C=O)c1O; assay: (§14) Inhibition of recombinant mouse brain PDXP-mediated pyridoxal 5' phosphate hydrolysis expressed in Escherichia coli BL21 (DE3) cells assessed as enzyme Vmax at 2 mM preincubated for 4 mins followed by substrate addition measured after 2 mins
[54] = compound: Cc1ncc(/C=C/P(=O)(O)O)c(CO)c1O; assay: as §14
[55] = compound: Cc1ncc(CCP(=O)(O)O)c(C=O)c1O; assay: as §14
[56] = compound: Cc1ncc(CCP(=O)(O)O)c(CO)c1O; assay: as §14
[57] = compound: Cc1ncc(/C=C/P(=O)(O)O)c(C=O)c1O; assay: (§15) Inhibition of recombinant mouse brain PDXP-mediated pyridoxal 5' phosphate hydrolysis expressed in Escherichia coli BL21 (DE3) cells assessed as enzyme Kcat at 2 mM preincubated for 4 mins followed by substrate addition measured after 2 mins
[58] = compound: Cc1ncc(/C=C/P(=O)(O)O)c(CO)c1O; assay: as §15
[59] = compound: Cc1ncc(CCP(=O)(O)O)c(C=O)c1O; assay: as §15
[60] = compound: Cc1ncc(CCP(=O)(O)O)c(CO)c1O; assay: as §15
[61] = compound: Cc1ncc(/C=C/P(=O)(O)O)c(C=O)c1O; assay: (§16) Inhibition of recombinant mouse brain PDXP-mediated pyridoxal 5' phosphate hydrolysis expressed in Escherichia coli BL21 (DE3) cells assessed as ratio of enzyme Kcat/Km at 2 mM preincubated for 4 mins followed by substrate addition measured after 2 mins
[62] = compound: Cc1ncc(/C=C/P(=O)(O)O)c(CO)c1O; assay: as §16
[63] = compound: Cc1ncc(CCP(=O)(O)O)c(C=O)c1O; assay: as §16
[64] = compound: Cc1ncc(CCP(=O)(O)O)c(CO)c1O; assay: as §16

B1: Chronophin (Mus musculus), P60487 (protein)
chain: MARCERLRGAALRDVLGQAQGVLFDCDGVLWNGERIVPGAPELLQRLARAGKNTLFVSNNSRRARPELALRFARLGFAGLRAEQLFSSALCAARLLRQRLSGPPDASGAVFVLGGEGLRAELRAAGLRLAGDPGEDPRVRAVLVGYDEQFSFSRLTEACAHLRDPDCLLVATDRDPWHPLSDGSRTPGTGSLAAAVETASGRQALVVGKPSPYMFQCITEDFSVDPARTLMVGDRLETDILFGHRCGMTTVLTLTGVSSLEEAQAYLTAGQRDLVPHYYVESIADLMEGLED
B1 gave a Km [1] of 78 µM, a Km [2] of 44 µM and a Km [3] of 72 µM. The Km [4] was 59 µM, the Vmax [5] was 3580 nmol/min/mg and the Vmax [6] was 3300 nmol/min/mg. It also gave a Vmax [7] of 3590 nmol/min/mg, a Vmax [8] of 3740 nmol/min/mg and a kcat [9] of 1.9 s⁻¹. For the same protein, the kcat [10] was 1.8 s⁻¹, the kcat [11] was 1.9 s⁻¹ and the kcat [12] was 2 s⁻¹. The kcat/Km [13] was 2.4 ×10⁴ /s/M, the kcat/Km [14] was 4 ×10⁴ /s/M and the kcat/Km [15] was 2.7 ×10⁴ /s/M. The kcat/Km [16] was 3.3 ×10⁴ /s/M, the Km [17] was 170 µM and the Km [18] was 77 µM. For the same protein, the Km [19] was 170 µM, the Km [20] was 83 µM and the Vmax [21] was 2990 nmol/min/mg. It also gave a Vmax [22] of 3230 nmol/min/mg, a Vmax [23] of 3280 nmol/min/mg and a Vmax [24] of 3680 nmol/min/mg. For the same protein, the kcat [25] was 1.6 s⁻¹, the kcat [26] was 1.7 s⁻¹ and the kcat [27] was 1.7 s⁻¹. For the same protein, the kcat [28] was 2 s⁻¹, the kcat/Km [29] was 0.9 ×10⁴ /s/M and the kcat/Km [30] was 2.2 ×10⁴ /s/M. For the same protein, the kcat/Km [31] was 1 ×10⁴ /s/M, the kcat/Km [32] was 2.4 ×10⁴ /s/M and the Km [33] was 248 µM. It also gave a Km [34] of 112 µM, a Km [35] of 197 µM and a Km [36] of 98 µM. The Vmax [37] was 2300 nmol/min/mg, the Vmax [38] was 3150 nmol/min/mg and the Vmax [39] was 2620 nmol/min/mg. It also gave a Vmax [40] of 3440 nmol/min/mg, a kcat [41] of 1.2 s⁻¹ and a kcat [42] of 1.7 s⁻¹. It also gave a kcat [43] of 1.4 s⁻¹, a kcat [44] of 1.8 s⁻¹ and a kcat/Km [45] of 0.5 ×10⁴ /s/M. For the same protein, the kcat/Km [46] was 1.5 ×10⁴ /s/M, the kcat/Km [47] was 0.7 ×10⁴ /s/M and the kcat/Km [48] was 1.9 ×10⁴ /s/M. For the same protein, the Km [49] was 224 µM, the Km [50] was 181 µM and the Km [51] was 246 µM. The Km [52] was 136 µM, the Vmax [53] was 1640 nmol/min/mg and the Vmax [54] was 3070 nmol/min/mg. The Vmax [55] was 2130 nmol/min/mg, the Vmax [56] was 3150 nmol/min/mg and the kcat [57] was 0.9 s⁻¹. The kcat [58] was 1.6 s⁻¹, the kcat [59] was 1.1 s⁻¹ and the kcat [60] was 1.7 s⁻¹. It also gave a kcat/Km [61] of 0.4 ×10⁴ /s/M, a kcat/Km [62] of 0.9 ×10⁴ /s/M and a kcat/Km [63] of 0.5 ×10⁴ /s/M. It also gave a kcat/Km [64] of 1.2 ×10⁴ /s/M.

— ChEMBL document CHEMBL3425448, “Synthesis of hydrolysis-resistant pyridoxal 5'-phosphate analogs and their biochemical and X-ray crystallographic characterization with the pyridoxal phosphatase chronophin” (Bioorg Med Chem, 2015)
